The supplement of paper PMC9170038

tested on: K4 kissing-loop RNA reporter; assay: apparent KD of K4 kissing-loop reporter; higher = weaker reporter binding; details: Eterna round: R107; input ligand: none
Protocol: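 RNA-MaP round R107: designed RNA switches with theophylline, tryptophan, arginine or FMN aptamers are transcribed on-chip within common flanks. They are titrated with a labelled K4 kissing-loop RNA reporter in RNA-MaP buffer (100 mM Tris pH 7.5, 80 mM KCl, 4 mM MgCl2), without ligand or with the indicated ligand. Median apparent KD per design.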
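Also: bound reporter read as fluorescence of individual clusters on recovered sequencing chips by microscopy, with normalized cluster intensities fitted with a binding model.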

Row | Sequence | apparent KD of K4 kissing-loop reporter
1 | AAGUGUCAUUAGACACAGACUACAAUACGCUAGGAUAUGCUGAUAAGCAGAAGGAGUGAUGUUCCUUUCAAGUAGUCAAUUAAAU [FmnAX 22 Mat Inspired #SwitchBubble #StaticStem #K4Late] | 136 nM
2 | CUGGGUUGACGAAAAGUCAACAAAUGAGAAGGAGCGCACGAAAGUGCAGGUAGGUCGCUCAGUCCAGUGAUGUUGGAUCAUCCAG [#SwitchBubble 10 #K4Late] | 578 nM
3 | GGAGAGAACUGAAGGAGCGGCAAGAGAGAAGGAAAUAUAGUGAUGUUAUAUAAGAGAGAGAGCCAGGUAGGUCGCAGAGGGAGGA [ExArgB.A] | 147 nM
4 | AGAACUGUCUGGGAUACCAGCCGAGGAGUGAUGUUCCGGCUCGACGAAACGUCGAGCCACGGCCCUUGGCAGCUCAGACAGUUCA [#21 K4 Theophylline B Same State] | 1050 nM
5 | UUUUAAAUGUCUGAUACCAGAGAAAAUUUAUGUAGUGAUGUUAUAUACAAAAUAAAUAAGCUCCCUUGGCAGCAGUAUUAAUUUU [AstrosExc-TheB#7] | 465 nM
6 | AGGGAUGAUGGAUAAAUAAACAAAAGGGAUACCAGUCAAAUAAUAGGCCCUUGGCAGCUUUAGAUCAGUGAUGUUGAAGAUAUUG [Theophylline A Same State; Euphoria Solution] | 93 nM
7 | CCUAUCUCAUACGAUACCAGUCGUCGAGUGAUGUUCGAUUAAAUAUAUUUGCCAAAUAACGACCCUUGGCAGCGUAUGGGAUAGG [Ex Theophylline B K4 17] | 340 nM
8 | GUACGGCGGGCGGCCGCCACUGGUAUACGAGUGAUGUUCGGAUAUACGUGAUGUAUGGUAAUUAACAGGACCGGGUCAGGGCCGG [whbob_SS_Tryp_B_t23] | 229 nM
9 | AUUUAUUCGAGUGAUGUUCGUGAUUUUUCAGAGGAUAUGCGUAAUAGCAGAAGGCUGUAUUUAUAUAUAUUUUGAUUUUUUUAAA [JR_Nu3_ExcFMNA_Sub024] | 64.6 nM
10 | CGAGUGAUGUUCGUUUAUUACUCUGUUUGACAGGAUAUGCGGAAACGCAGAAGGGUCACCUUUGAGUUAGACGGAGUUAUUUUUU [Ex FMN A 22] | 407 nM
11 | UUACUACCCAGUGAUGUUGGGUAGCGGCGGCGAGGACCGGUACGGCCGCCACUCGGCGCACGGGAGUGAUGUUCCUACCGUUAGG [Same state Tryptophan A GF 8] | 604 nM
12 | UGAUACCAGACUGAUACCAGCCAGUGAUGUUGGCUAAAACCAAAAGCUGGCAAAGCCAGCGGCCCUUGGCAGCAGUCUGGUAUCU [TheoBX 1 #SwitchBubble #StaticStem] | 806 nM
13 | AAAUUUUAAAGUGAUACCAGACAUCUCAAUUACAUUAAUAAAGCUAAGUGAUGUUUAGCAGUCCCUUGGCAGCACAAUUUAAUUA [JR_SSTheophyB_Sub011] | 334 nM
14 | AAUAAAAUCACGGCCGCCACUGAAUAAUUACGAAGUAGUGAUGUUACUUCACAUAUCUUAUUUAACAGGACCGGGUGAAUAUUUA [#16 K4 Tryptophan B Exclusion] | 70.9 nM
15 | UCUAACAAAUCGGCCGCCACUGAAAUAACCCAGGAGUGAUGUUCCAUCGUCCUAGACUACUCUUCCAGGACCGGGAUCUGUGUUC [theeternabot_exclusion_KL_Trp_B_25] | 529 nM
16 | GGUGACAACCAGAGGUGAUGUAUAGUAUCGCGAGGACCGGUACGGCCGCCACUCGUGAAGAGAAAGGAGUGAUGUUCCGUAAUGG [Kazoo C7] | 272 nM
17 | GCAAUCCCGGCGGCCGCCACUUUCAUACCAGUGAUGUUGAGUAGGAAAUGGAAUAUGCGCUGAAUAAGGACCGGGCCUAAGGAGA [theeternabot_exclusion_KL_Trp_B_47] | 251 nM
18 | GGAGGGAUCUCGGCCGCCACUCGUAAGAAAUGGGCCUCAGGGAUAUAGUGAUGUUAUGUAAAGAAGAGGACCGGGAGAAAGAAGG [ExTryptoB.Dd] | 247 nM
19 | UUUCUUUUUUUGAUGUUUUUUGUAUAAUGGCAGGAUAUCGUAGAUGCGAGAAGGGCUUUUAUGCGUUAUGAGUGAUGUUUGUAGG [aaxazvmullin] | 320 nM
20 | CUAUGGAAACAUAGUGAUCGGGAAACCGAUACCAGUAUGGAAACAUACCCUUGGCAGCGGAAUGAUCUAACGGAGUGAUGUUCCG [Theophylline A K4 23] | 574 nM
21 | UUUUAAAUGUCUGAUACCAGAGAAAAUAUAUGUAGUGAUGUUAUAUACAAAUUGAAUAAGCUCCCUUGGCAGCAGUAUUAAUUUU [AstrosExc-TheB#11] | 713 nM

same assay, conditions: Eterna round: R107; input ligand: theophylline 20 uM

Row | Sequence | apparent KD of K4 kissing-loop reporter
22 | AAGUGUCAUUAGACACAGACUACAAUACACUAGGAUAUGCUGAUAAGCAGAAGGAGUGAUGUUCCUUUCAAGUAGUCAAUUAAAU [FmnAX 21 Mat Inspired #SwitchBubble #StaticStem #K4Late] | 178 nM
23 | GGAUCCACCAGUGAUGUUGGAGAAAACUUCAAGGAUAUGACGAAAGUCAGAAGGUGGUAGACUGGACAAAGUCCGGUGGGAUCCA [FmnA10 U29+G78] | 566 nM
24 | GGCAUAGUCUCAACGUGUGGUUGGGUUGGGAAGGAUAUUUGAUCGAAAAGAAGGUCCCGCAUUGAGUGAUGUUCAAGGGCUCCAA [theeternabot_exclusion_KL_FMN_A_26] | 213 nM
25 | CCAGGAUGAUGAGGAUGAUGAAUUACUGAAGGAGCGCAUAUGGUUGCAGGUAGGUCGCGGUGAAUAAGUAUAGUGAUGUUAUGCC [SSArgA.X] | 448 nM
26 | GCCGUAGAUGGAAGGAGCGUGGUGGACUCGUGAAGUGAUGUUUCAAGUCGAUAUGCCCAACCACAGGUAGGUCGCCAUCUACGGC | 198 nM
27 | GUAGGAUGAGGAGGAGGAUGAAUUACUGAAGGAGCGCAUAUAAAUGCAGGUAGGUCGCGGUAAAGAAGUAUAGUGAUGUUAUAUA [SSArgA.G] | 438 nM
28 | UGGUGCCAUUGGCGGGUAGAUAGUGGUGGCAAGGAUAUGUGAGCGAACAGAAGGUGCAUCAAGUUCAGUGAUGUUGGGCUCGAUU [theeternabot_sameState_KL_FMN_A_20] | 254 nM
29 | AUCGAUAUCAGAGGAUAUGCUUAAUUGAUUUAUUAUUAUUUAUUAUGCAGUGAUGUUGCAUUUUUUGCAGAAGGCUGAUUUCGAA [JR_SSFMNB_Sub022] | 137 nM
30 | UGUCAUGGAAACAUGAACGUUGAUGUUCGACGAGGACCGGUACGGCCGCCACUCGAGUAAUAGUCAGUGAUGUUGACUGGGCUAA [KL-SSTryp-A form1 sub2] | 250 nM
31 | UAUAUAGUGACGGCCGCCACUAUAUUAAUGUUUUUGUUAGAGUGAUGUUUUGAUUAAUAUUUUUAUAGGACCGGGUUAUAUGUUA [xzzxmullin] | 628 nM
32 | ACAGCGAGCAUUAACGCGCUCGCAGGUUGCAAGGAUAUAUUUCGUCAUAGAAGGUGCUAGACCAUAAGUGAUGUUUGUGGAUAUA [theeternabot_sameState_KL_FMN_A_16] | 448 nM
33 | AGGCAAUAUGCGGCCGCCACUUUCAGUGAUGUUGAGACGCGGAAUGUUGUAUAAUAUCGCCACGAAAGGACCGGGCAAGGGAAAG [theeternabot_exclusion_KL_Trp_B_5] | 423 nM
34 | GGCAGUGAUGUUGCCAGUGGCAGAUUGGAAGGAGCGUGGUGAGACACAGGUAGGUCGCUAAUUGAAGUUGCUGUCACUAAAAUGC [whbob_Ex_Arginine_A_2t131] | 260 nM
35 | GGAGGCUAUGCAGGAUAUAGUCGGUUGAGUGAUGUUUAACGACUAAACCUUCUAAGUCACAGCCCGCUAGAAGGGCAUAGCCUCC | 229 nM
36 | GCAUCGAUGGCAGGAUAUAGGUUCGUGGAGUGAUGUUCCAUAGCCCGAGUGAUGUUCGUUAUCCGCCUAGAAGGGCCGUGGAUGC [whbob_Ex_FMNB__2th215] | 221 nM
37 | CAGAACUUAUAUAGAAACUAUAUAAGAGAUACCAGUCAAAUUAAAGACCCUUGGCAGCUCAGGCGAGUGAUGUUCGCAGGCUAAC [Astros-Gfrank-modulation#1] | 106 nM

Row | Sequence | apparent KD of K4 kissing-loop reporter
38 | GGCUUGCCAGUGAUGUUGGCAUAAACUGAAGGAGCGCGUGAAAACGCAGGUAGGUCGCAGAACCUUGCCAACUAUUUUAUUUGCC [Ex Arginine A K4 24] | 252 nM
39 | GGGUCAGUCUGAAGGAGCGGCCAGACAGAGCAGUGAUGUUGCUCCUCCGGAAACGGUGUCGGCCAGGUAGGUCGCAGAUUGGCUC [Dienralais mod v1] | 126 nM
40 | UGUCAUUGGUCGGCCGCCACUUCGUGUGGAGUGAUGUUUUGUAGGUUGUGUUGAAAGGUAUGGUGAAGGACCGGGACCGAUGACU [FiskerMod 20 - Jieux - Same State - Tryptophan B] | 1080 nM
41 | AUGUCUGAUAGCAGUGAUGUUGCUUCGGAUACCAGACGAGAUCAUGUCCCUUGGCAGCUGACACGGCACGUGCUAGGUUAGAUGA [whbob_Ex_Theo_A_th72] | 116 nM
42 | AGUAGUUGGACGGCCGCCACUAGAACGCCUUUGCCAAAGGCAGAGGACUAGAGUGAUGUUCUAGCUAGGACCGGGUCCAACUACA [Omei KL Tryp B SS A v4] | 127 nM
43 | AAGUGUCAUUAGACACAGACUACAAUACGCUAGGAUAUGCUGAUAAGCAGAAGGAGUGAUGUUCCUUUCAAGUAGUCAAUUAAAU [FmnAX 22 Mat Inspired #SwitchBubble #StaticStem #K4Late] | 166 nM
44 | CUGGGUUGACGAAAAGUCAACAAAUGAGAAGGAGCGCACGAAAGUGCAGGUAGGUCGCUCAGUCCAGUGAUGUUGGAUCAUCCAG [#SwitchBubble 10 #K4Late] | 480 nM
45 | GGAGAGAACUGAAGGAGCGGCAAGAGAGAAGGAAAUAUAGUGAUGUUAUAUAAGAGAGAGAGCCAGGUAGGUCGCAGAGGGAGGA [ExArgB.A] | 164 nM
46 | AGAACUGUCUGGGAUACCAGCCGAGGAGUGAUGUUCCGGCUCGACGAAACGUCGAGCCACGGCCCUUGGCAGCUCAGACAGUUCA [#21 K4 Theophylline B Same State] | 1250 nM
47 | UUUUAAAUGUCUGAUACCAGAGAAAAUUUAUGUAGUGAUGUUAUAUACAAAAUAAAUAAGCUCCCUUGGCAGCAGUAUUAAUUUU [AstrosExc-TheB#7] | 357 nM
48 | AGGGAUGAUGGAUAAAUAAACAAAAGGGAUACCAGUCAAAUAAUAGGCCCUUGGCAGCUUUAGAUCAGUGAUGUUGAAGAUAUUG [Theophylline A Same State; Euphoria Solution] | 159 nM
49 | CCUAUCUCAUACGAUACCAGUCGUCGAGUGAUGUUCGAUUAAAUAUAUUUGCCAAAUAACGACCCUUGGCAGCGUAUGGGAUAGG [Ex Theophylline B K4 17] | 417 nM
50 | GUACGGCGGGCGGCCGCCACUGGUAUACGAGUGAUGUUCGGAUAUACGUGAUGUAUGGUAAUUAACAGGACCGGGUCAGGGCCGG [whbob_SS_Tryp_B_t23] | 147 nM
51 | AUUUAUUCGAGUGAUGUUCGUGAUUUUUCAGAGGAUAUGCGUAAUAGCAGAAGGCUGUAUUUAUAUAUAUUUUGAUUUUUUUAAA [JR_Nu3_ExcFMNA_Sub024] | 99.4 nM
52 | CGAGUGAUGUUCGUUUAUUACUCUGUUUGACAGGAUAUGCGGAAACGCAGAAGGGUCACCUUUGAGUUAGACGGAGUUAUUUUUU [Ex FMN A 22] | 355 nM
